Laboratory results taken from IntAct's records for PubMed 17581628.

B1: Ras-related protein Rab-5A (Homo sapiens), P20339 (parent)
chain: MASRGATRPNGPNTGNKICQFKLVLLGESAVGKSSLVLRFVKGQFHEFQESTIGAAFLTQTVCLDDTTVKFEIWDTAGQERYHSLAPMYYRGAQAAIVVYDITNEESFARAKNWVKELQRQASPNIVIALSGNKADLANKRAVDFQEAQSYADDNSLLFMETSAKTSMNVNEIFMAIAKKLPKNEPQNPGANSARGRGVDLTEPTQPTRNQCCSN
partner: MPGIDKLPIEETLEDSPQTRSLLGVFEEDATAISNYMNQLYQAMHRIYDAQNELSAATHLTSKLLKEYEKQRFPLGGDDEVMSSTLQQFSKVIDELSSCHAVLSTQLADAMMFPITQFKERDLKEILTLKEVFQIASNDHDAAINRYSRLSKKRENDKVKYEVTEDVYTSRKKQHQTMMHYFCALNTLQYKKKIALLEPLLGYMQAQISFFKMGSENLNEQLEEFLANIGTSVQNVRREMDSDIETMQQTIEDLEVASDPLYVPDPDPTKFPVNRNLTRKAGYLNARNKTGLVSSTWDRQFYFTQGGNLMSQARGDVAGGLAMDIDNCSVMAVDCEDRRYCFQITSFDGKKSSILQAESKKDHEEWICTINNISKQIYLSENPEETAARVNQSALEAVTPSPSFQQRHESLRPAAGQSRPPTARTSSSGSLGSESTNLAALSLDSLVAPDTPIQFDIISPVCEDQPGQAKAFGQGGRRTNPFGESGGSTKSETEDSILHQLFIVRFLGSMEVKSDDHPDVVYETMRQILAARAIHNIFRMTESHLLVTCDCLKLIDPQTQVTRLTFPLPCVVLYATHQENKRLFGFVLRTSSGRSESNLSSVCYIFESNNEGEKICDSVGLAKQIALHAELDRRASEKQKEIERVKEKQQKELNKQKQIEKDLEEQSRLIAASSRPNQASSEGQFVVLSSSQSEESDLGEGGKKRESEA
B2: DCC-interacting protein 13-alpha (Homo sapiens), Q9UKG1 (parent)
chain: B1 partner

Variants of: B1
Conditions: with dp13a_human APPL1, Q9UKG1

| effect of a mutation on the interaction | Variant |
| --- | --- |
| decreasing interaction | Y89R |

Variants of: B1
Conditions: with dp13a_human APPL1, Q9UKG1
Remark: another data set of the same source

| effect of a mutation on the interaction | Variant |
| --- | --- |
| decreasing interaction | F48N |

Variants of: B1
Conditions: with dp13a_human APPL1, Q9UKG1
Remark: another data set of the same source

| effect of a mutation on the interaction | Variant |
| --- | --- |
| disrupting interaction | L85R |

Variants of: B1
Conditions: with dp13a_human APPL1, Q9UKG1
Remark: another data set of the same source

| effect of a mutation on the interaction | Variant |
| --- | --- |
| disrupting interaction | W74R |

Variants of: B1
Conditions: with dp13a_human APPL1, Q9UKG1
Remark: another data set of the same source

| effect of a mutation on the interaction | Variant |
| --- | --- |
| decreasing interaction | M88S |

Variants of: B1
Conditions: with dp13a_human APPL1, Q9UKG1
Remark: another data set of the same source

| effect of a mutation on the interaction | Variant |
| --- | --- |
| decreasing interaction | K42E |

Variants of: B1
Conditions: with dp13a_human APPL1, Q9UKG1
Remark: another data set of the same source

| effect of a mutation on the interaction | Variant |
| --- | --- |
| disrupting interaction | H46D |

Variants of: B2
Conditions: with rab21_human RAB21, Q9UL25
Chain of rab21_human RAB21, Q9UL25 (Q9UL25 whole entry): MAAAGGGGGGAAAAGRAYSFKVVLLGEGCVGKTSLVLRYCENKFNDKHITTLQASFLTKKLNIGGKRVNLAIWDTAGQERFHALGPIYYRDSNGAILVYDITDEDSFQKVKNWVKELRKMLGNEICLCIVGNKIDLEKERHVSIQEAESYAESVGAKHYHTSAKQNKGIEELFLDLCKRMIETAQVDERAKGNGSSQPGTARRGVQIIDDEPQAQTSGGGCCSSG

| effect of a mutation on the interaction | Variant |
| --- | --- |
| disrupting interaction | G319R |

Variants of: B2
Conditions: with rab5a_human RAB5A

| effect of a mutation on the interaction | Variant |
| --- | --- |
| disrupting interaction | G319R |

Variants of: B2
Conditions: with rab5a_human RAB5A
Remark: another data set of the same source

| effect of a mutation on the interaction | Variant |
| --- | --- |
| disrupting interaction | N308D |

Variants of: B2
Conditions: with rab21_human RAB21, Q9UL25
Remark: another data set of the same source

| effect of a mutation on the interaction | Variant |
| --- | --- |
| disrupting interaction | N308D |

Variants of: B2
Conditions: with rab21_human RAB21, Q9UL25
Remark: another data set of the same source

| effect of a mutation on the interaction | Variant |
| --- | --- |
| disrupting interaction | D348K |

Variants of: B2
Conditions: with rab21_human RAB21, Q9UL25
Remark: another data set of the same source

| effect of a mutation on the interaction | Variant |
| --- | --- |
| decreasing interaction | E28K |

Variants of: B2
Conditions: with rab21_human RAB21, Q9UL25
Remark: another data set of the same source

| effect of a mutation on the interaction | Variant |
| --- | --- |
| disrupting interaction | D324A |

Variants of: B2
Conditions: with rab5a_human RAB5A
Remark: another data set of the same source

| effect of a mutation on the interaction | Variant |
| --- | --- |
| disrupting interaction | D324A |

Variants of: B2
Conditions: with rab5a_human RAB5A
Remark: another data set of the same source

| effect of a mutation on the interaction | Variant |
| --- | --- |
| disrupting interaction | M310K |

Variants of: B2
Conditions: with rab21_human RAB21, Q9UL25
Remark: another data set of the same source

| effect of a mutation on the interaction | Variant |
| --- | --- |
| disrupting interaction | M310K |

Variants of: B2
Conditions: with rab21_human RAB21, Q9UL25
Remark: another data set of the same source

| effect of a mutation on the interaction | Variant |
| --- | --- |
| decreasing interaction | L321D |

Variants of: B2
Conditions: with rab5a_human RAB5A
Remark: another data set of the same source

| effect of a mutation on the interaction | Variant |
| --- | --- |
| disrupting interaction | L321D |

Variants of: B2
Conditions: with rab5a_human RAB5A
Remark: another data set of the same source

| effect of a mutation on the interaction | Variant |
| --- | --- |
| disrupting interaction | A318D |

Variants of: B2
Conditions: with rab21_human RAB21, Q9UL25
Remark: another data set of the same source

| effect of a mutation on the interaction | Variant |
| --- | --- |
| disrupting interaction | D316R |

Variants of: B2
Conditions: with rab5a_human RAB5A
Remark: another data set of the same source

| effect of a mutation on the interaction | Variant |
| --- | --- |
| decreasing interaction | V25D |

Variants of: B2
Conditions: with rab21_human RAB21, Q9UL25
Remark: another data set of the same source

| effect of a mutation on the interaction | Variant |
| --- | --- |
| decreasing interaction | V25D |
